{"source": "the Human Domainome abundance scans (Beltran et al. 2025)", "parents": {"B1": {"name": "Double-stranded RNA-binding protein Staufen homolog 1, residues 183 to 249; numbered along this chain, O95793 (parent)", "chain": "KSEISQVFEIALKRNLPVNFEVARESGPPHMKNFVTKVSVGEFVGEGEGKSKKISKKNAAIAVLEEL"}}, "note": "± gives the uncertainty stated by the source."}
{"variants_of": "B1", "assay": "abundance fitness (aPCA) (normalised: wild type 0, dead -1); higher = more abundant; growth selection in yeast, the domain comes from the species named", "conditions": "Homo sapiens"}
{"variant": "P17N", "abundance fitness": "-0.112 ± 0.096"}
{"variant": "P17C", "abundance fitness": "-0.447 ± 0.18"}
{"variant": "P17Y", "abundance fitness": "-0.288 ± 0.15"}
{"variant": "P17R", "abundance fitness": "-0.025 ± 0.051"}
{"variant": "K13P", "abundance fitness": "-0.528 ± 0.085"}
{"variant": "K13W", "abundance fitness": "-0.59 ± 0.074"}
{"variant": "K13A", "abundance fitness": "-0.019 ± 0.056"}
{"variant": "K13G", "abundance fitness": "-0.308 ± 0.043"}
{"variant": "K13Y", "abundance fitness": "-0.323 ± 0.1"}
{"variant": "K13L", "abundance fitness": "-0.213 ± 0.042"}
{"variant": "K13R", "abundance fitness": "-0.071 ± 0.046"}
{"variant": "K13E", "abundance fitness": "-0.183 ± 0.072"}
{"variant": "K13V", "abundance fitness": "-0.215 ± 0.055"}
{"variant": "K13D", "abundance fitness": "-0.327 ± 0.085"}
{"variant": "K13F", "abundance fitness": "-0.436 ± 0.11"}
{"variant": "K13Q", "abundance fitness": "-0.079 ± 0.069"}
{"variant": "K13I", "abundance fitness": "-0.26 ± 0.096"}
{"variant": "K13C", "abundance fitness": "-0.296 ± 0.084"}
{"variant": "K13S", "abundance fitness": "-0.194 ± 0.049"}
{"variant": "K13M", "abundance fitness": "-0.213 ± 0.09"}
{"variant": "K13T", "abundance fitness": "-0.246 ± 0.079"}
{"variant": "F8P", "abundance fitness": "-0.457 ± 0.056"}
{"variant": "F8K", "abundance fitness": "-0.135 ± 0.055"}
{"variant": "F8V", "abundance fitness": "-0.203 ± 0.04"}
{"variant": "F8M", "abundance fitness": "-0.143 ± 0.058"}
{"variant": "F8S", "abundance fitness": "-0.394 ± 0.039"}
{"variant": "F8T", "abundance fitness": "-0.337 ± 0.048"}
{"variant": "F8Y", "abundance fitness": "0.129 ± 0.062"}
{"variant": "F8L", "abundance fitness": "-0.112 ± 0.039"}
{"variant": "F8A", "abundance fitness": "-0.334 ± 0.047"}
{"variant": "F8N", "abundance fitness": "-0.317 ± 0.063"}
{"variant": "F8E", "abundance fitness": "-0.268 ± 0.048"}
{"variant": "F8H", "abundance fitness": "-0.012 ± 0.074"}
{"variant": "F8C", "abundance fitness": "-0.258 ± 0.066"}
{"variant": "F8D", "abundance fitness": "-0.408 ± 0.066"}
{"variant": "F8R", "abundance fitness": "-0.129 ± 0.033"}
{"variant": "F8G", "abundance fitness": "-0.332 ± 0.039"}
{"variant": "F8W", "abundance fitness": "0.064 ± 0.047"}
{"variant": "R24I", "abundance fitness": "-0.17 ± 0.09"}
{"variant": "R24G", "abundance fitness": "-0.196 ± 0.037"}
{"variant": "R24Q", "abundance fitness": "-0.085 ± 0.042"}
{"variant": "R24N", "abundance fitness": "-0.207 ± 0.069"}
{"variant": "R24S", "abundance fitness": "-0.065 ± 0.039"}
{"variant": "R24E", "abundance fitness": "-0.031 ± 0.044"}
{"variant": "R24A", "abundance fitness": "-0.132 ± 0.047"}
{"variant": "R24T", "abundance fitness": "-0.085 ± 0.045"}
{"variant": "R24D", "abundance fitness": "-0.141 ± 0.081"}
{"variant": "R24H", "abundance fitness": "-0.118 ± 0.073"}
{"variant": "R24C", "abundance fitness": "-0.045 ± 0.074"}
{"variant": "R24P", "abundance fitness": "-0.035 ± 0.051"}
{"variant": "R24Y", "abundance fitness": "-0.246 ± 0.064"}
{"variant": "R24K", "abundance fitness": "0.016 ± 0.049"}
{"variant": "R24V", "abundance fitness": "-0.102 ± 0.036"}
{"variant": "R24W", "abundance fitness": "-0.256 ± 0.038"}
{"variant": "R24L", "abundance fitness": "-0.129 ± 0.035"}
{"variant": "A11E", "abundance fitness": "-0.822 ± 0.079"}
{"variant": "A11C", "abundance fitness": "-0.825 ± 0.11"}
{"variant": "A11N", "abundance fitness": "-0.564 ± 0.082"}
{"variant": "A11T", "abundance fitness": "-0.653 ± 0.087"}
{"variant": "A11V", "abundance fitness": "-0.892 ± 0.065"}
{"variant": "A11M", "abundance fitness": "-0.913 ± 0.098"}
{"variant": "A11D", "abundance fitness": "-0.679 ± 0.08"}
{"variant": "A11S", "abundance fitness": "-0.358 ± 0.048"}
{"variant": "A11P", "abundance fitness": "-0.891 ± 0.1"}
{"variant": "A11Q", "abundance fitness": "-0.732 ± 0.098"}
{"variant": "A11F", "abundance fitness": "-1.13 ± 0.24"}
{"variant": "A11L", "abundance fitness": "-0.9 ± 0.079"}
{"variant": "A11I", "abundance fitness": "-1.08 ± 0.26"}
{"variant": "A11K", "abundance fitness": "-0.633 ± 0.068"}
{"variant": "A11W", "abundance fitness": "-0.91 ± 0.095"}
{"variant": "A11Y", "abundance fitness": "-0.967 ± 0.14"}
{"variant": "A11R", "abundance fitness": "-0.829 ± 0.063"}
{"variant": "A11G", "abundance fitness": "0.035 ± 0.039"}
{"variant": "Q6T", "abundance fitness": "-0.198 ± 0.03"}
{"variant": "Q6S", "abundance fitness": "-0.255 ± 0.026"}
{"variant": "G27Q", "abundance fitness": "-0.259 ± 0.044"}
{"variant": "G27C", "abundance fitness": "-0.366 ± 0.076"}
{"variant": "G27V", "abundance fitness": "-0.457 ± 0.047"}
{"variant": "G27D", "abundance fitness": "-0.259 ± 0.046"}
{"variant": "G27W", "abundance fitness": "-0.48 ± 0.046"}
{"variant": "G27M", "abundance fitness": "-0.395 ± 0.05"}
{"variant": "G27K", "abundance fitness": "-0.207 ± 0.052"}
{"variant": "G27Y", "abundance fitness": "-0.437 ± 0.079"}
{"variant": "G27E", "abundance fitness": "-0.339 ± 0.049"}
{"variant": "G27L", "abundance fitness": "-0.418 ± 0.036"}
{"variant": "G27I", "abundance fitness": "-0.223 ± 0.12"}
{"variant": "G27T", "abundance fitness": "-0.309 ± 0.047"}
{"variant": "G27S", "abundance fitness": "-0.267 ± 0.042"}
{"variant": "G27N", "abundance fitness": "-0.307 ± 0.081"}
{"variant": "G27H", "abundance fitness": "-0.326 ± 0.11"}
{"variant": "G27F", "abundance fitness": "-0.436 ± 0.071"}
{"variant": "G27A", "abundance fitness": "-0.239 ± 0.043"}
{"variant": "L12E", "abundance fitness": "-0.085 ± 0.076"}
{"variant": "L12Q", "abundance fitness": "0.01 ± 0.17"}
{"variant": "L12C", "abundance fitness": "-0.06 ± 0.099"}
{"variant": "L12W", "abundance fitness": "-0.063 ± 0.096"}
{"variant": "L12M", "abundance fitness": "0.011 ± 0.079"}
{"variant": "L12D", "abundance fitness": "-0.047 ± 0.17"}
{"variant": "L12F", "abundance fitness": "-0.075 ± 0.13"}
{"variant": "L12G", "abundance fitness": "-0.035 ± 0.067"}
{"variant": "L12K", "abundance fitness": "-0.029 ± 0.22"}
{"variant": "L12R", "abundance fitness": "0.127 ± 0.06"}
{"variant": "L12A", "abundance fitness": "0.111 ± 0.069"}
{"variant": "L12H", "abundance fitness": "-0.032 ± 0.34"}
{"variant": "L12T", "abundance fitness": "-0.155 ± 0.11"}
{"variant": "L12N", "abundance fitness": "0.081 ± 0.11"}
{"variant": "L12I", "abundance fitness": "-0.026 ± 0.22"}
{"variant": "L12P", "abundance fitness": "-0.645 ± 0.12"}
{"variant": "L12S", "abundance fitness": "0.028 ± 0.081"}
{"variant": "L12Y", "abundance fitness": "0.066 ± 0.14"}
{"variant": "N15T", "abundance fitness": "-0.431 ± 0.087"}
{"variant": "N15C", "abundance fitness": "-0.325 ± 0.11"}
{"variant": "N15R", "abundance fitness": "-0.155 ± 0.044"}
{"variant": "N15H", "abundance fitness": "0.006 ± 0.12"}
{"variant": "N15E", "abundance fitness": "-0.231 ± 0.054"}
{"variant": "N15S", "abundance fitness": "-0.146 ± 0.061"}
{"variant": "N15D", "abundance fitness": "-0.156 ± 0.076"}
{"variant": "N15Y", "abundance fitness": "-0.637 ± 0.1"}
{"variant": "N15V", "abundance fitness": "-0.785 ± 0.069"}
{"variant": "N15G", "abundance fitness": "0.025 ± 0.041"}
{"variant": "N15A", "abundance fitness": "-0.198 ± 0.056"}
{"variant": "N15I", "abundance fitness": "-0.629 ± 0.17"}
{"variant": "N15L", "abundance fitness": "-0.531 ± 0.065"}
{"variant": "N15M", "abundance fitness": "-0.296 ± 0.093"}
{"variant": "N15F", "abundance fitness": "-0.557 ± 0.12"}
{"variant": "N15Q", "abundance fitness": "-0.144 ± 0.1"}
{"variant": "V18N", "abundance fitness": "-0.906 ± 0.14"}
{"variant": "V18G", "abundance fitness": "-0.707 ± 0.056"}
{"variant": "V18S", "abundance fitness": "-0.465 ± 0.065"}
{"variant": "V18F", "abundance fitness": "-0.832 ± 0.15"}
{"variant": "V18K", "abundance fitness": "-0.562 ± 0.093"}
{"variant": "V18A", "abundance fitness": "-0.377 ± 0.054"}
{"variant": "V18W", "abundance fitness": "-0.861 ± 0.096"}
{"variant": "V18M", "abundance fitness": "-0.396 ± 0.093"}
{"variant": "V18Y", "abundance fitness": "-0.739 ± 0.13"}
{"variant": "V18L", "abundance fitness": "-0.404 ± 0.044"}
{"variant": "V18R", "abundance fitness": "-0.657 ± 0.058"}
{"variant": "V18Q", "abundance fitness": "-0.647 ± 0.079"}
{"variant": "V18T", "abundance fitness": "-0.784 ± 0.1"}
{"variant": "V18E", "abundance fitness": "-0.507 ± 0.086"}
{"variant": "V18C", "abundance fitness": "-0.218 ± 0.1"}
{"variant": "V18P", "abundance fitness": "-0.402 ± 0.084"}
{"variant": "V18D", "abundance fitness": "-0.746 ± 0.17"}
{"variant": "N19P", "abundance fitness": "-0.698 ± 0.07"}
{"variant": "N19L", "abundance fitness": "-0.069 ± 0.041"}
{"variant": "N19G", "abundance fitness": "-0.323 ± 0.053"}
{"variant": "N19K", "abundance fitness": "0.082 ± 0.061"}
{"variant": "N19W", "abundance fitness": "-0.246 ± 0.062"}
{"variant": "N19S", "abundance fitness": "0.006 ± 0.051"}
{"variant": "N19F", "abundance fitness": "-0.062 ± 0.089"}
{"variant": "N19V", "abundance fitness": "-0.101 ± 0.048"}
{"variant": "N19C", "abundance fitness": "0.027 ± 0.11"}
{"variant": "N19T", "abundance fitness": "0.037 ± 0.052"}
{"variant": "N19M", "abundance fitness": "-0.048 ± 0.058"}
{"variant": "N19I", "abundance fitness": "-0.15 ± 0.075"}
{"variant": "N19R", "abundance fitness": "0.077 ± 0.044"}
{"variant": "N19A", "abundance fitness": "-0.047 ± 0.051"}
{"variant": "N19Y", "abundance fitness": "-0.167 ± 0.084"}
{"variant": "N19D", "abundance fitness": "-0.229 ± 0.099"}
{"variant": "N19H", "abundance fitness": "0.011 ± 0.078"}
{"variant": "S26F", "abundance fitness": "-0.348 ± 0.29"}
{"variant": "S26P", "abundance fitness": "-0.27 ± 0.45"}
{"variant": "S26Q", "abundance fitness": "-0.337 ± 0.42"}
{"variant": "S26T", "abundance fitness": "0.085 ± 0.21"}
{"variant": "P28D", "abundance fitness": "-0.167 ± 0.096"}
{"variant": "P28C", "abundance fitness": "-0.157 ± 0.069"}
{"variant": "P28A", "abundance fitness": "-0.155 ± 0.056"}
